Test results published in patent US11261449B2, “Anti-cancer RNA aptamers” (CITY OF HOPE, priority 2015, dated 2022).

B1: P1: 2′F RNA aptamer selected by whole cell SELEX on Panc-1, SEQ ID NO:4 (nucleic acid)
chain: GGGAGACAAGAAUAAACGCUCAAUGCGCUGAAUGCCCAGCCGUGAAAGCGUCGAUUUCCAUCCUUCGACAGGAGGCUCACAACAGGC
modifications: all phosphodiester, sugars by position and methylation of C not given here; 2'-fluoro modified RNA
B2: P19: 2′F RNA aptamer selected by whole cell SELEX on Panc-1, SEQ ID NO:2 (nucleic acid)
chain: GGGAGACAAGAAUAAACGCUCAAUGGCGAAUGCCCGCCUAAUAGGGCGUUAUGACUUGUUGAGUUCGACAGGAGGCUCACAACAGGC
modifications: all phosphodiester, sugars by position and methylation of C not given here; 2'-fluoro modified RNA

Assays:
pancreatic cancer = conditions: cited from earlier work
[1] = Cytotoxicity compared with gemcitabine (hemoglobin, WBC, neutrophil, platelet counts); type: in vivo; conditions: engrafted mice
Protocol: FIG. 5A-5F. In vivo experiments. (FIG. 5A) The conjugates of P19 and P1 was injected via tail vein injection in Panc-1 engrafted mice. The conjugates were injected day 1, 3 and 5 for 3 or 4 weeks. Student t-test (unpaired, two-tailed) was used for statistical analysis. *t-test: […] (FIG. 5B) The photon was counter by I.V.I.S and signal changes were calculated in traceable xenoengrafted mice. (FIG. 5C) The representative images of the spectrum of IVIS 200 of each group. (FIG. 5D) Comparison of anti-tumor effect of C/EBPα-saRNA with gemcitabine in Panc-1 engrafted mice by tail vein injection. Tumor size was measured. *t-test: […] (FIG. 5E) The tumor growth inhibition of gemcitabine-resistant ASPC-1 engrafted mice by tail vein injection. Signal changes were calculated. Metastasis to ascites was measured. *t-test: […] (FIG. 5F) Comparison of cytotoxicity with gemcitabine. Hemoglobin, WBC, neutrophil and platelet were counted.

Panc-1 engrafted mice = test: Anti-tumor effects in Panc-1 (PANC-Luc) engrafted NOD/SCID mice; type: in vivo; conditions: P19 conjugates 1 nmol tail vein; gemcitabine 3 mg I.P.; listed as Gemcitabine
Protocol: To establish the traceable tumor animal models, subcutaneous implantations were performed by injecting 25 μl of a monocellular suspension containing 10^6 Panc-1 cell with luciferase expression (PANC-Luc) cells and a 25p growth factor reduced matrigel matrix (BD Biosciences, USA) under the dorsal skin of 6-week-old female NOD/SCID mice (BioLasco Co., Taiwan). The firefly luciferase fragment was inserted into the pcDNA-3.1(+) backbone encoding ampicillin resistance for selection in bacteria and neo gene for selection in mammalian cells. The recombinant constructs for stable cell line were purified using plasmid midi kit (QIAGEN, USA). PANC-1 cells were transfected with recombinant constructs for 24 h. The following day, culture medium was replaced with standard medium containing 1.2 mg/mL G418 (Merck, Germany) for stable clone selection. […] Luciferase expression was assessed using the Luciferase Assay System. […] Tumor growth was monitored by evaluating bioluminescence using the spectrum of IVIS 200 before first injection and one week after last injection. […] The mice were imaged in the spectrum of IVIS 200 and bioluminescent signals were analyzed using Living Image Software (Caliper Life Sciences, Alameda, Calif.). Tumor size was measured by ruler and calculated by the formula 0.52*length*width*width

[2] = system: pancreatic cell lines PANC-1, AsPC-1, MIA PaCa and Capan-1; test: Live cell confocal internalization in pancreatic cancer cell lines; type: cell-based, human; conditions: Cy3-labeled RNA 100 nM
Protocol: (§1) For the internalization, the cells were grown in 35 mm glass bottom dishes (MatTek, Ashland, Mass., USA) with seeding at 1×10^5 cells in medium for 24 hrs. The RNAs were labeled with Cy3 using the Cy3 Silencer siRNA labeling kit (Ambion, Tex., USA.). Cy3-labeled RNAs at 100 nM were added to the cells and incubated for 1 hour. The images were taken using a Zeiss LSM 510 Meta Inverted 2 photon confocal microscope system using a C-Apo 40×/1.2 NA Water immersion objective.

[3] = system: Non pancreatic lines including Huh7, HepG2, MCF7 and PC3 cells; test: Confocal internalization / cell binding in non pancreatic cancer lines; type: cell-based; conditions: Cy3-labeled RNA, liver, breast and prostate cancer lines
Protocol: as §1

Panc-1 = test: Binding to Panc-1 cells by flow cytometry with Cy3-labeled aptamers (KD); design: species or system human; conditions: Cy3 labeled aptamers 15.6-500 nM, MFI, one site binding non-linear regression; read-out: binding affinity (Kd)
Protocol: Aptamer binding and uptake was also assessed by flow cytometry. For the assay, cells were detached using a non-enzymatic cell dissociation solution, washed with PBS and suspended in binding buffer. Next, Cy3-labeled aptamers were added and incubated for 1 hours at 37° C. The binding of individual aptamers for the starting pool as a control to pancreatic cancer cells was performed in triplicate. Flow cytometry was performed on a Cyan (Beckman Coulter counter) and Fortessa. The data were analyzed with FlowJo software.
To determine the binding affinity of aptamers to Panc-1, the median fluorescence intensity (MFI) of each concentrations was determined and subtracted the mean fluorescence background of controls from the corresponding MFI of aptamers described by Sefah et al^53. The dissociation constants were calculated using one site binding non-linear curve regression with a Graph Pad Prism (GraphPad Software, La Jolla, Calif., USA).

[4] = system: normal tissues such as liver, spleen, and kidney; T and B cells; test: Staining of other normal tissues and T and B cells; design: species or system human; conditions: Cy3 labeled aptamer
Protocol: FIG. 2A-2B. Histology (FIG. 2A) The representative images by histopathological screen in normal tissues. The samples were stained with Cy3 labeled aptamer P1 and P19 respectively. The sample sections were then examined under microscope at 100× magnification. Cy3-labeled RNA. (FIG. 2B) Flow cytometry analysis of P19 and P1 in T and B cells. Cy3-labeled RNAs were tested for binding to T and B cell isolated from human blood.

[5] = molecular target: T1, mortalin (mitochondrial Hsp70) (Homo sapiens, UniProt P38646); test: Surface plasmon resonance (BIAcore T100); type: binding; conditions: aptamer biotin-labeled at 3′ end immobilized on SA chip
Source text: (§2) P1 and P19 were labeled with biotin at the 3′ end. Target membrane proteins were isolated following procedures described by Daniels et al^26 or extracted by ProteoExtract Native Membrane protein Extraction Kit (Calbiochem). Agilent 6520 Q-TOF mass spectrometer used to identify aptamer retrieved proteins. A BIAcore T100 (GE Healthcare, Uppsala, Sweden) was used to measure binding by surface plasmon resonance (SPR) technique. BIAevaluation software (GE Healthcare) was used for analysis. Gel shift assay was also performed to validate the target ligand binding.

[6] = molecular target: T1, mortalin (mitochondrial Hsp70); test: Gel shift assay; type: binding; conditions: native PAGE
Source text: as §2

cell membrane proteins = molecular target: T2, cell membrane proteins (Homo sapiens, UniProt P38646); test: Retrieval of cell membrane proteins by biotinylated aptamers and MASS-SPEC; conditions: peptide matching fingerprinting
T2 construct: cell membrane proteins were retrieved by biotinylated aptamers; endogenous in cells
Source text: as §2

[7] = system: gemcitabine-resistant ASPC-1 engrafted mice; test: Gemcitabine resistant AsPC-1 tumor in NOD/SCID mice; type: in vivo; conditions: tail vein, 4 injections at days 1, 3, 5, 7, sacrificed day 9
Protocol: (§3) For gemcitabine resistant tumour test, twelve 5-weeks-old female NOD/SCID mice were injected subcutaneously (S.C.) on the flank with 2.8×10^6 AsPC-1 pancreatic cancer cells in 0.05 ml PBS with 0.15 ml matrigel. After 3 weeks, mice were divided into four groups. One group served as untreated controls and the others injected with P1 (10 ug per injection), P19 (10 ug per injection) and P1 combined with P19 (5 ug of P1 with 5 ug of P19 per injection). Aptamer were injected through tail vein. Animals were injected 4 times at days 1, 3, 5, and 7, and were sacrificed at day 9.
as §3, with “To test chemoresistant tumor regression in mice,” for “For gemcitabine resistant tumour test,”, “ASPC-1 gemcitabine resistant” for “AsPC-1”, “P1,” for “P1 (10 ug per injection),”, “P19” for “P19 (10 ug per injection)”, “P19.” for “P19 (5 ug of P1 with 5 ug of P19 per injection).”

[8] = system: human pancreatic cancer and normal pancreas tissue specimens; test: Histopathology staining with Cy3 labeled aptamers, aptamer score; conditions: for No. of Patients, Low (<7) staining / No. of Patients, Medium (>7 and <14) staining / No. of Patients, High (>14 and <20) staining: 72 patient samples; for No. of Patients, Low (<7) staining: aptamer score <7; for No. of Patients, Medium (>7 and <14) staining: aptamer score >7 and <14; for No. of Patients, High (>14 and <20) staining: aptamer score >14 and <20; for recognition of pancreatic cancer versus normal pancreas tissues: Cy3 labeled aptamer, histopathology; for Survival Period, High (>14 and <20) staining group / Survival Period, Low (<7) staining group / Survival Period, Medium (>7 and <14) staining group: Table 5, Mean ± SD
Protocol: The samples were stained by aptamer P1 and P19 respectively. We linked P1 and P19 with Cy3 as marker and DAPI stating was performed for cell nuclei as background. The sample sections were then examined under microscope at 100× magnification, and the aptamer content in each slide of pancreatic cancer was determined by measuring the average of positive-stained particle numbers in five independent fields randomly.
A total of 72 patients (45 male and 27 female) of pancreatic adenocarcinoma had undergone surgical intervention between January 2008 and December 2010 in National Taiwan University Hospital. Diagnosis was settled by pathologic analysis of specimen. All of the enrolled patients fulfilled the informed consent to receive the procedure, and this study was Institutional Review Board approved of NTUH.

Panc-1 cells = test: Competition of Cy3 labeled P19 with unlabeled clones, confocal; type: binding, human; conditions: 200 nM Cy3 labeled P19, 1 μM unlabeled clone
Protocol: For competition assays, 200 nM of Cy3 labeled P19 aptamer was used to compete with either unlabeled clones (1 μM). The fluorescence intensity was quantified in the presence of increasing amounts of competitors using confocal microscopy and analyzed statistically. One-way ANOVA was used for statistical significant analysis (P<0.05).

T1 sequence (P38646 47-679): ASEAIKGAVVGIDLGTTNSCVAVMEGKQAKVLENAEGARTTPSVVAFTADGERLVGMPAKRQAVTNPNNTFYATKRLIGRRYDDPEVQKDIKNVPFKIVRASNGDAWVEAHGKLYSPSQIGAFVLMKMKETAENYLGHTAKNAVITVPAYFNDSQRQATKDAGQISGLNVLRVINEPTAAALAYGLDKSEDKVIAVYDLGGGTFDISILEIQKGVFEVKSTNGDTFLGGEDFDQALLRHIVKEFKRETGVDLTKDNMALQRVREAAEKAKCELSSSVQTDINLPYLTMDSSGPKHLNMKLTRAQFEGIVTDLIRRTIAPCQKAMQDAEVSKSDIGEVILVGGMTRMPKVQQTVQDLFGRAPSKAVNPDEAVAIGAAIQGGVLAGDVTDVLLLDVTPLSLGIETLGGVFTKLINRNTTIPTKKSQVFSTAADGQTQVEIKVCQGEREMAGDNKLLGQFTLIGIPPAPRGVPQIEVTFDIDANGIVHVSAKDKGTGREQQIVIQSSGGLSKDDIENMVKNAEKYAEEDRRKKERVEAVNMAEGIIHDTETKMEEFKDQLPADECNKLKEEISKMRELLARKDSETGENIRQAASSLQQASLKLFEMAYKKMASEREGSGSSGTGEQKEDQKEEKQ
T2 sequence (P38646 47-679): as above

| Molecule | internalization in pancreatic cancer cells [2] | internalization / binding in non pancreatic cancer lines [3] | Kd (Panc-1) [nM] | staining of other normal tissues including T and B cells [4] | binding by SPR [5] | gel shift [6] | target ligand identified (cell membrane proteins) | anti-tumor effect of aptamers only (tumor size) [7] | No. of Patients, Low (<7) staining [8] | No. of Patients, Medium (>7 and <14) staining [8] | No. of Patients, High (>14 and <20) staining [8] | recognition of pancreatic cancer versus normal pancreas tissues [8] | Survival Period, High (>14 and <20) staining group [8] | Survival Period, Low (<7) staining group [8] | Survival Period, Medium (>7 and <14) staining group [8] | also measured |
| --- | --- | --- | --- | --- | --- | --- | --- | --- | --- | --- | --- | --- | --- | --- | --- | --- |
| C#Cc1cccc(Nc2ncnc3cc(OCCOC)c(OCCOC)cc23)c1 [erlotinib] |  |  |  |  |  |  |  |  |  |  |  |  |  |  |  | median added to overall survival (pancreatic cancer; addition of erlotinib, randomized study): 11 days; survival benefit (pancreatic cancer; phase III trial of erlotinib with gemcitabine, advanced disease): marginal survival benefit |
| Nc1ccn([C@@H]2O[C@H](CO)[C@@H](O)C2(F)F)c(=O)n1 [gemcitabine, 4-amino-1-(2-deoxy-2,2-difluoro-β-D-erythro-pentofuranosyl)pyrimidin-2(1H)-on] |  |  |  |  |  |  |  |  |  |  |  |  |  |  |  | cytotoxicity (hemoglobin, WBC, neutrophil, platelet) [1]: cytotoxicity such as reduction of hemoglobin and neutrophils; cytotoxicity (hemoglobin, WBC, neutrophil, platelet) ([1]; listed as Gemcitabine): cytotoxicity on RBCs and neutrophils; 1-year survival rate (pancreatic cancer; single agent, improved from 16): 19%; anti-tumor effects compared with PBS group (Panc-1 engrafted mice): failed to reduce tumor growth |
| truncated P19: P19 truncated to 28mer including the common motif GAAUGCCC, SEQ ID NO:1 (CUCAAUGGCGAAUGCCCGCCUAAUAGGG; listed as RNA, chemistry not fully specified) | internalized into Panc-1 and AsPC-1 cells | negative reaction | 8.77 |  |  |  |  |  |  |  |  |  |  |  |  |  |
| B1 | punctate regions of Cy3 labeling | No Cy3 signal was observed | 2.2 | negative staining | bound to the mortalin | shifted band was observed | mitochondrial Hsp70 which is mortalin | anti-tumor effects in gemcitabine resistance tumour cells significantly | 3 | 26 | 43 | recognized pancreatic cancer tissues specifically, not normal pancreas tissues | 13.1 ± 4.36 | 21.0 ± 2.64 | 15.9 ± 3.17 | survival period, medium level group [8]: 15.9±3.17 months |
| B2 | punctate regions of Cy3 labeling | No Cy3 signal was observed | 13.1 | negative staining | bound to the mortalin | shifted band was observed | mitochondrial Hsp70 which is mortalin | anti-tumor effects in gemcitabine resistance tumour cells significantly | 3 | 26 | 43 | recognized pancreatic cancer tissues specifically, not normal pancreas tissues | 13.0 ± 4.29 | 21.0 ± 2.64 | 15.6 ± 3.30 | fluorescence intensity of labeled P19 in presence of unlabeled competitor (Panc-1 cells): significantly decreased |
